Assay results as given in patent publication US20220315554A1, “COMPOUNDS COMPRISING A […] LIGAND AND USE THEREOF” (priority 2019, published 2022).
Bridge positions count the residues as written; N and C are the ends. * marks the point of attachment. tMeBn(DOTA-AET) = Cys-Cys bridge (thioethers) carrying DOTA-AET; tMeBn(DOTA-PP) = Cys-Cys bridge (thioethers) carrying DOTA-PP; Hexanoyl = CCCCCC(=O)*

T1: AR (h) (human (printed (h))), P10275
T1 chain: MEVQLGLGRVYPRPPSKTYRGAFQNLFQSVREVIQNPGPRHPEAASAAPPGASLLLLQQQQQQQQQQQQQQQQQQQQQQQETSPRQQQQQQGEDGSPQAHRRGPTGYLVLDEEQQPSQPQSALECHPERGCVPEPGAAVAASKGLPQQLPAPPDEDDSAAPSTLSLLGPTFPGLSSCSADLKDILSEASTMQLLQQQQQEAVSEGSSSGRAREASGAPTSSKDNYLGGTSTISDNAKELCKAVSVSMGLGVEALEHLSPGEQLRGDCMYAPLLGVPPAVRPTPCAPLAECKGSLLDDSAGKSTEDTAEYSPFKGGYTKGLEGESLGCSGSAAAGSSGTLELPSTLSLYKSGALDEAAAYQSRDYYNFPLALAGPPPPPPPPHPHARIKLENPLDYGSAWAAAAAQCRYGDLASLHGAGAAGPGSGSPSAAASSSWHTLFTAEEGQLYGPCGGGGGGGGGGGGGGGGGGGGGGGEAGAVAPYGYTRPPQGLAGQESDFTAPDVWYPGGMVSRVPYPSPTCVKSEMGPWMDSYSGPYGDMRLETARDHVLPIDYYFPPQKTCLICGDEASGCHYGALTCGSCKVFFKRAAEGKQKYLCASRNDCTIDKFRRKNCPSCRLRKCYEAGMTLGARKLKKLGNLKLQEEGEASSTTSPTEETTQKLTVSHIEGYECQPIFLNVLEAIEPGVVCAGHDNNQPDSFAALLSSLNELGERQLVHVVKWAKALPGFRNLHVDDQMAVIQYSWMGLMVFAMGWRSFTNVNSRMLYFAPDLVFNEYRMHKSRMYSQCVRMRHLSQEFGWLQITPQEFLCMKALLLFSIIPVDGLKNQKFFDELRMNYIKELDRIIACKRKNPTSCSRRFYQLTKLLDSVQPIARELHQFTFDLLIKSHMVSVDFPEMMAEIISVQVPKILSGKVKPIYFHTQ

T2: 5-HT1A (h) (human (printed (h))), P08908
T2 chain: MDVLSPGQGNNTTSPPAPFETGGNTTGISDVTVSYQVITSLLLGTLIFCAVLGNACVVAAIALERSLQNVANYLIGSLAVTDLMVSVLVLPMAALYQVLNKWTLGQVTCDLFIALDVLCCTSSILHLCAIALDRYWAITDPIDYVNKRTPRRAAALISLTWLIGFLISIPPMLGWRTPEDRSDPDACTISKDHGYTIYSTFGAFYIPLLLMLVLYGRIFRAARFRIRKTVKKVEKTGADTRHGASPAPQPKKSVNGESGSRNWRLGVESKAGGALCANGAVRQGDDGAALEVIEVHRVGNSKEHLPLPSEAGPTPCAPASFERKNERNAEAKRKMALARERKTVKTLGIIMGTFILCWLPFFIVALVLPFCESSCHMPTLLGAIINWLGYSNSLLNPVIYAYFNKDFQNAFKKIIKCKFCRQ

T3: ETA (h) (human (printed (h))), P25101
T3 chain: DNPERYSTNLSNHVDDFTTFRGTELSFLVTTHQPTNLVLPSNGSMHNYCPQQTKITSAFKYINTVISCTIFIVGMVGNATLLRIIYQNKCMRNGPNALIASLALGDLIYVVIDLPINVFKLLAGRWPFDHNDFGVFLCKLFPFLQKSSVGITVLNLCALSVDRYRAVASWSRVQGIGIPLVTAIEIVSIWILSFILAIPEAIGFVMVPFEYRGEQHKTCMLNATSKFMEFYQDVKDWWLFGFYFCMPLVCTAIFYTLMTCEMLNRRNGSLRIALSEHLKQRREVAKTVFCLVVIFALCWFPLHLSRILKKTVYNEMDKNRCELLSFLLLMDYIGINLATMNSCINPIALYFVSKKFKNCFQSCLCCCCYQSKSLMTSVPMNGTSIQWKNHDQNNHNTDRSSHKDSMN

T4: M2 (h) (human (printed (h))), P08172
T4 chain: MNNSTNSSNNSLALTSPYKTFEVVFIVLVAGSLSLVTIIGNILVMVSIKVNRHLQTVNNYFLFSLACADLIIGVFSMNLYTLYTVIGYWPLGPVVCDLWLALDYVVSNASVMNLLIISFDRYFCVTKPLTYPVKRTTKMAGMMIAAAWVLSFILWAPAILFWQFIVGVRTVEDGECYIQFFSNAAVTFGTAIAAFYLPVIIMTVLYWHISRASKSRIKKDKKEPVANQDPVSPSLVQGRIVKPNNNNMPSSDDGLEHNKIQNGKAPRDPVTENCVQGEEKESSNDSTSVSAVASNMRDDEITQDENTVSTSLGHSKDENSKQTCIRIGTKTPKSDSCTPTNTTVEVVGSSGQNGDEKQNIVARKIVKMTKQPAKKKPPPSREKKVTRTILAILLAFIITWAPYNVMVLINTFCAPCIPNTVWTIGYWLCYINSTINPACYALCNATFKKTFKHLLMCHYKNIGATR


How the values were obtained:
Test in all cases: radioligand displacement, 10 uM compound
Details in all cases: remark: other sources report otherwise
[1] = biological target: CB2 (h) (human (printed (h))), P34972
CB2 (h) (human (printed (h))), P34972, sequence (P34972 whole entry): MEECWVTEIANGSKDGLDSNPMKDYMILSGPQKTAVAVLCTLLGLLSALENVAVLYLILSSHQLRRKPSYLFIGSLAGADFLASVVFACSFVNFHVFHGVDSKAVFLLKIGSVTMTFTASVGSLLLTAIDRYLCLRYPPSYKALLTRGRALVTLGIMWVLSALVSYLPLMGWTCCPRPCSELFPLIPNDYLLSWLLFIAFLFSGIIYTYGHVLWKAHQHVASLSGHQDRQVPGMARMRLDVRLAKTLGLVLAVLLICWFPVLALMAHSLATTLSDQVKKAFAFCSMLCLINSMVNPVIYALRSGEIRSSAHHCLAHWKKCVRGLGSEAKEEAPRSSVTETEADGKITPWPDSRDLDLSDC

[2] = biological target: T1, AR (h) (human (printed (h))), P10275
[3] = biological target: T2, 5-HT1A (h) (human (printed (h))), P08908
[4] = biological target: 5-HT transporter (h) (human (printed (h))), P31645
[5] = biological target: T3, ETA (h) (human (printed (h))), P25101
[6] = biological target: beta 1 (h) (human (printed (h))), P08588
[7] = biological target: T4, M2 (h) (human (printed (h))), P08172
[8] = biological target: norepinephrine transporter (h) (human (printed (h))), P23975
norepinephrine transporter (h) (human (printed (h))), P23975, sequence (P23975 whole entry): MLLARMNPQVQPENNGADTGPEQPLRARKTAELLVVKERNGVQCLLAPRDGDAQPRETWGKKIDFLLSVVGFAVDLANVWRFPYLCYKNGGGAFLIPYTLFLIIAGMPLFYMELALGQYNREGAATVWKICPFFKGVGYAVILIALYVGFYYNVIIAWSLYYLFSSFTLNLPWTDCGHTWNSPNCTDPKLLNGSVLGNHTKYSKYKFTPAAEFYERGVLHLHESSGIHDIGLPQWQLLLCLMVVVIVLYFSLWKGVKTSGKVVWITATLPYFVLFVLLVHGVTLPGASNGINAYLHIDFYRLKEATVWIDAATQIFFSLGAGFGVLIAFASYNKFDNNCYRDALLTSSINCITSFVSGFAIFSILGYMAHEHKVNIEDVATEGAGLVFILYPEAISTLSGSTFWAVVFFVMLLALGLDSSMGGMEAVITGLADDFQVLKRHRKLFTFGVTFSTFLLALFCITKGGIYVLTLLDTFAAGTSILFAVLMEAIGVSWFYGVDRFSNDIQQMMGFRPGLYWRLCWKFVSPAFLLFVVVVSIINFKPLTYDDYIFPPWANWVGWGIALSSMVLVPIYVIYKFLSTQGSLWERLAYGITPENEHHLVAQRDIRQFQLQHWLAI

% Inhibition of Specific Binding [1] [%]	% Inhibition of Specific Binding [2] [%]	% Inhibition of Specific Binding [3] [%]	% Inhibition of Specific Binding [4] [%]	% Inhibition of Specific Binding [5] [%]	% Inhibition of Specific Binding [6] [%]	% Inhibition of Specific Binding [7] [%]	% Inhibition of Specific Binding [8] [%]	Binder
-5	-5	-5	-8	6	-13	7	-5	Hexanoyl-CPPTQFC-OH (linker 1-7 via tMeBn(DOTA-AET)) [Hex-[Cys(tMeBn(DOTA-AET))-Pro-Pro-Thr-Gln-Phe-Cys]-OH (3BP-3554)]
2	3	-3	-3	-18	4	-4	-8	Hexanoyl-CPPTQFCD-NH2 (linker 1-7 via tMeBn(DOTA-PP)) [Hex-[Cys(tMeBn(DOTA-PP))-Pro-Pro-Thr-Gln-Phe-Cys]-Asp-NH2 (3BP-3407)]
